{"source": "patent US20020103111A1", "about": "(Takeda / Millennium, published 2002)", "binders": {"B1": {"name": "Ac-Cys*-Gly-Leu-Asp-Thr-Ser-Leu-Gly-Cys* (peptide)", "peptide": "Ac-CGLDTSLGC", "modifications": "disulfide 1-9; not fully specified (C-terminus); printed as Ac-Cys*-Gly-Leu-Asp-Thr-Ser-Leu-Gly-Cys*", "notes": "also called Ex No 5; 00145-1B"}}, "key": {"[1]": {"target": "T1, human α4β7 integrin (human, UniProt P13612 34-1032; P26010 20-798)", "T1 construct": "whole, on cells; assays run with Mn++; also called α4β7 on HUT 78 cells; α4β7 on RPMI 8866 cells", "assay": "inhibition of HUT 78 cell adhesion to murine MAdCAM-1/mCk", "method": "The assay was performed in a 96-well format. Plates were coated overnight at 4° C. with 53 μl/well of a 5 μg/mL solution of rat anti-mCk in carbonate buffer. The plates were blocked for 1 hour at 37° C. with 100 μL/well of 1% BSA in PBS. The BSA/PBS solution was removed, and 50 μL of MAdCAM-mCk supernatant was added neat to each well. The assay was conducted under conditions in which capture antibody was the limiting reagent.\nCell adhesion was measured in the presence or absence of compounds. The compounds were resuspended in 100% DMSO, subsequently diluted 1:10 in water, and finally diluted again 1:10 in the assay: 50 μL of 2X Assay Bufler, 30 μL water, 20 μL of compound were added to each well.\nOver this range, Four different concentrations were tested in duplicate."}, "[2]": {"target": "T1, human α4β7 integrin", "assay": "inhibition of RPMI 8866 cell adhesion to huMAdCAM-1-Ig"}}, "note": "Bridge positions count the residues as written; N and C are the ends. Ends that are not written are not given here. R1 = not defined here", "data": [{"binder": "B1", "values": [{"measurement": "IC50", "setting": "[1]", "value": 266, "unit": "µM"}]}, {"binder": "R1-LDTSL (reading uncertain; also: printed as R1-Leu-Asp-Thr-Ser-Leu, not tied)", "note": "[R1-Leu-Asp-Thr-Ser-Leu, L# 1276 (Table 4)]", "values": [{"measurement": "IC50", "setting": "[2]", "value": 2.7, "unit": "µM"}]}]}
